Molecular target: tripartite motif containing 28 (TRIM28) (human (endogenous in HeLa), UniProt Q13263 1-835)
Experiment: cell-based or functional assay

Sequence of tripartite motif containing 28 (TRIM28) (Q13263 whole entry): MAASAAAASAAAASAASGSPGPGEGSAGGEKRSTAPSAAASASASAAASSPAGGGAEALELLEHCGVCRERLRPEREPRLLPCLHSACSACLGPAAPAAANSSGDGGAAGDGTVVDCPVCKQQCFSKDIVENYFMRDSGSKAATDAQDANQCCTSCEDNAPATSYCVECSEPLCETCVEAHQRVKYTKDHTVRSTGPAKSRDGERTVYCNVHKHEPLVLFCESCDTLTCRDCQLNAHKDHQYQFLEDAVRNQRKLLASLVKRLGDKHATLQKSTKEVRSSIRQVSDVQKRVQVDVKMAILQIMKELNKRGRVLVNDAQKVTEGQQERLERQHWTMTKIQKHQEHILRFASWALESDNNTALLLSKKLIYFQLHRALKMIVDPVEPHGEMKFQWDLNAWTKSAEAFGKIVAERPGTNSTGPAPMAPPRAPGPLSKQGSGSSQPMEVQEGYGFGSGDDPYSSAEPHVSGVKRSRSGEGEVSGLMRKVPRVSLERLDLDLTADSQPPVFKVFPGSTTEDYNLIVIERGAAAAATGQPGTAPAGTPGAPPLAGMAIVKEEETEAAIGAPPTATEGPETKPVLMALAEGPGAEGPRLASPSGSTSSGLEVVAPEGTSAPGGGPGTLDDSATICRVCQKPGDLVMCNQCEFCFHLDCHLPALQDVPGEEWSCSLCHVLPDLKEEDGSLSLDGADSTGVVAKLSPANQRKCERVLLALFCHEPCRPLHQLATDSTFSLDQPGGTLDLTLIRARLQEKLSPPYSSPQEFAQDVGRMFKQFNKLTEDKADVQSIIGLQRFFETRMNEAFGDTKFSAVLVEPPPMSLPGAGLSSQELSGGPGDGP

B1: GST-ZNF10-AB fusion protein (domain or fragment)
chain: not shown
For B1, the “transcriptional repression factor over Gal4-DBD alone, dual luciferase reporter assay in HeLa cells (KRAB domain as Gal4-DBD fusion)” value was roughly 19 fold.

B2: GST-PRDM9-A/24-97 (domain or fragment, human, UniProt Q9NQV7 24-97, looked up)
chain: VKDAFKDISIYFTKEEWAEMGDWEKTRYRNVKRNYNALITIGLRATRPAFMCHRRQAIKLQVDDTEDSDEEWTP
For B2, the “transcriptional repression factor over Gal4-DBD alone, dual luciferase reporter assay in HeLa cells (KRAB domain as Gal4-DBD fusion)” value was 1.3 fold.

Reference: article PMC8835667, “The KRAB Domain of ZNF10 Guides the Identification of Specific Amino Acids That Transform the Ancestral KRAB-A-Related Domain Present in Human PRDM9 into a Canonical Modern KRAB-A Domain” (International Journal of Molecular Sciences, 2022)
